For 3 sequences, Kd results are on record in article PMC10251311.

Experiment in all cases: MST
Data set [1] concerns the target RSV postfusion F (Respiratory syncytial virus) (UniProt P03420+P03420). Conditions: T in primer region unmodified, MST: PBS, 0.05% Tween 20, 25 C, 10-20 nM Cy5-aptamer, AlphaScreen: PBS with mucin 10 mg/L, BSA 1 mg/ml, salmon sperm DNA 1 mg/L, RT, 10 nM biotin-aptamer ….
The subject of data set [2] is Influenza H1 hemagglutinin S106 DS26r (Influenza virus H1). As to conditions: every U is TAdU (5-[(3-indolyl)propionamide-N-allyl]-2'-deoxyuridine); all sugars deoxyribose; T in primer region unmodified; MST: PBS, 0.05% Tween 20, 25 C, 10-20 nM Cy5-aptamer; AlphaScreen: PBS with mucin 10 mg/L, BSA 1 mg/ml, salmon sperm DNA 1 mg/L, RT, 10 nM biotin-aptamer …. In general terms: Bead proximity is the source of the signal in Alpha formats.

Data set [3] addresses hMPV prefusion F v3B (Human metapneumovirus) (UniProt Q6WB98). As to conditions: every U is TAdU (5-[(3-indolyl)propionamide-N-allyl]-2'-deoxyuridine); all sugars deoxyribose; T in primer region unmodified; MST: PBS, 0.05% Tween 20, 25 C, 10-20 nM Cy5-aptamer; AlphaScreen: PBS with mucin 10 mg/L, BSA 1 mg/ml, salmon sperm DNA 1 mg/L, RT, 10 nM biotin-aptamer ….

Sequence of hMPV prefusion F v3B (Human metapneumovirus) (Q6WB98 whole entry, the tested form may be a part): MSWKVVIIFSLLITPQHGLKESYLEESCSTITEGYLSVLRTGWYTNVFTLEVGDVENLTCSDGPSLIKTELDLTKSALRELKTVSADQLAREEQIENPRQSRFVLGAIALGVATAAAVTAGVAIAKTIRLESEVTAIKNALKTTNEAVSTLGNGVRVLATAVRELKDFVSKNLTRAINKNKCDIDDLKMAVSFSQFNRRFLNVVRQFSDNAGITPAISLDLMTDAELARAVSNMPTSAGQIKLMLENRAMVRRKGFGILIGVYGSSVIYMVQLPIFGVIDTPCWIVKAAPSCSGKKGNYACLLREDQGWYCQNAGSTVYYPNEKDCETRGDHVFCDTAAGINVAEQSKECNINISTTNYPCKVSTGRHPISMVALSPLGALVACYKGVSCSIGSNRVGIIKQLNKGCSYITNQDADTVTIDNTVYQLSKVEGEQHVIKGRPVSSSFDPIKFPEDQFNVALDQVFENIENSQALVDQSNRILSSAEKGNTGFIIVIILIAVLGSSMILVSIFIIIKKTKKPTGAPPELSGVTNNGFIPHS

In general, Kd refers to a measure of binding affinity in units of concentration. A low value points to tighter binding. Consider “GATCGAGCCAGCTACGTCAGUUAUGGUAUAGGUUGGUGGUGGGGGGGGGUUGUGGUGGGACAUGCCUCAGCGACUA [B1]”, for which the Kd in data set [1] (every U is TAdU (deoxy)) is 3.99 µM. As to “GATCGAGCCAGCTACGTCAUGCUGUCAAUGGGUGGGUGUGGUGGGGUUGAUGUUAUGUGACAUGCCUCAGCGACUA [A2]”, the Kd in data set [2] amounted to 14.7 µM; in data set [3], 6.95 µM; in data set [1] (every U is TAdU (5-[(3-indolyl)propionamide-N-allyl]-2'-deoxyuridine), all sugars deoxyribose) it was 0.994 µM. For the sequence “GATCGAGCCAGCTACGTCAUGGUUGGGAGGUGUUGUGGGGAUGGUGGGUGGGAGUAUGACAUGCCUCAGCGACUA [D4]”, the Kd in data set [1] (every U is TAdU (deoxy)) stood at 2.76 µM.
